Columns and labels:
Experiment in all cases: HLA-binding assay
[1] = biological target: B*27:05
[2] = biological target: B*35:01
[3] = biological target: B*40:01
[4] = biological target: A*29:02

E6 137-144
IC50 [1]: 13 nM

E5 55-63
IC50 [2]: 1.4 nM

E6 52-61
IC50 [2]: 51 nM

E6 81-90
IC50 [3]: 0.54 nM

E6 83-90
IC50 [1]: 12 nM

E5 65-73
IC50 [4]: 444 nM

Reference: patent US20240352087A1
